Literature values, collected in PMC5264612.

Key:
MftA = MftA (UniProt P9WJ80)
MftC = MftC (UniProt P9WJ78)
Sequence of UniProt P9WJ78 (P9WJ78 whole entry): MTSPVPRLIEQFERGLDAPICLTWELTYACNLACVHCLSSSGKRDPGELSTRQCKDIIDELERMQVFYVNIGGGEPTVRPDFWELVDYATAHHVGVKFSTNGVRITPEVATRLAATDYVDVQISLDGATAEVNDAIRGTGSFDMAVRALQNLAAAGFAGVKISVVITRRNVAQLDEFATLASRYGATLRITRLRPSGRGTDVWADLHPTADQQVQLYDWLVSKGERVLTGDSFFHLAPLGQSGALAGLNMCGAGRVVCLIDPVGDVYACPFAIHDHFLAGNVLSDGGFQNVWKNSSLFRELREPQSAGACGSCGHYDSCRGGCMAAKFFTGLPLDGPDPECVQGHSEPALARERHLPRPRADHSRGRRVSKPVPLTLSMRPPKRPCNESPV

Sequence of UniProt P9WJ80 (P9WJ80 whole entry): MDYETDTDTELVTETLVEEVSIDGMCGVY

MftB (from UniProt A0PM48)
Kd (MftA): 120 nM
Kd (MftC): 2000 nM
